The labels stand for the following.
T1: chromodomain of CBX7 (human, UniProt O95931 8-62)
T1 sequence (looked up): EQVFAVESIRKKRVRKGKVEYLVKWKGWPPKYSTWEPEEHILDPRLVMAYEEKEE

T2: chromodomain of CBX4 (human, UniProt O00257-1 8-65)
T2 sequence (looked up): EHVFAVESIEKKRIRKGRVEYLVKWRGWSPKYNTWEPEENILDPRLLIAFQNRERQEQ

T3: chromodomain of CDYL2 (human, UniProt Q8N8U2 1-75)
T3 sequence (looked up): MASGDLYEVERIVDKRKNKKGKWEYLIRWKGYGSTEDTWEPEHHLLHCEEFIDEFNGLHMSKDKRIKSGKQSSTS

B1: compound 1 (UNC3866) (peptide)
peptide: FALKS
modifications: N-terminal para-t-butyl benzoyl cap; diethyl-lysine in lieu of Kme3; C-terminal methyl ester
B2: compound 10 (peptide)
peptide: GFALKS
modifications: N-terminal benzoyl (Bz) cap; N-methylated glycine amide (N(me)Gly); trimethyl-lysine (Kme3); C-terminal methyl ester (Ser-OMe)
B3: compound 3 (peptide)
peptide: Bz-Ala-Leu-[Lys(Me3)]-NHMe
SMILES: CNC(=O)[C@H](CCCC[N+](C)(C)C)NC(=O)[C@H](CC(C)C)NC(=O)[C@H](C)NC(=O)c1ccccc1

What is called IC50 is the concentration at which inhibition is half-maximal. A lower IC50 goes with greater potency in that assay.

Square brackets hold non-standard residues; d marks the D form. Side chains are listed from the residue outwards. * marks the point of attachment. pyrrolidinyl = lysine with its side-chain amine cyclized into a pyrrolidine ring; azepanyl = lysine epsilon-N closed into a 7-membered azepane ring; piperidinyl = lysine epsilon-N closed into a piperidine ring; Lys(Me3) = C[N+](C)(C)CCCC[C@H](N)C(=O)O; NMeF = CN[C@@H](Cc1ccccc1)C(=O)O; dicyclobutyl = not defined here; diethyl = not defined here; Cyclopentyl = C1CCC(*)C1; cyclohexyl = C1CCC(*)CC1; Bz = O=C(c1ccccc1)*; iPr = CC(C)*

The first assay has as its target T1, chromodomain of CBX7. Nature of the assay: AlphaScreen or HTRF. On the technique in general: In Alpha technology, singlet oxygen from a donor bead excites a nearby acceptor bead.
The molecule {4‑iPr‑Bz}-FALK(diethyl)S-OMe (reading uncertain) [compound 32] displayed an IC50 of 0.061 µM. That is a double-digit nanomolar value.

B1 registered an IC50 of 0.037 µM.

With {4‑CF3‑Bz}-FALK(diethyl)S-OMe (reading uncertain) [compound 34], the half-inhibitory concentration (IC50) amounted to 0.23 µM.

As for {3‑Me‑Bz}-FALK(diethyl)S-OMe (reading uncertain) [compound 29], the IC50 amounted to 0.74 µM.

In turn, Bz-FALK(diethyl)S-OMe (reading uncertain) [compound 27] came in with a 50% inhibitory concentration (IC50) of 1.2 µM.

In the case of {4‑Et‑Bz}-FALK(diethyl)S-OMe (reading uncertain) [compound 31], the concentration for half-maximal inhibition (IC50) was found to be 0.081 µM.

Molecule {4‑CO2Me‑Bz}-FALK(diethyl)S-OMe (reading uncertain) [compound 33] registered an IC50 of 0.57 µM.

{t‑butylbenzyl}-FALK(diethyl)S-OMe (reading uncertain) [compound 36] displayed an IC50 of 4.4 µM.

The molecule {2‑Me‑Bz}-FALK(diethyl)S-OMe (reading uncertain) [compound 28] had an IC50 of 25 µM. Compared with the last molecule, the IC50 is about 5.7-fold higher.

For {4‑Me‑Bz}-FALK(diethyl)S-OMe (reading uncertain) [compound 30], the IC50 was 0.22 µM. This IC50 lies about 110-fold lower than the previous one.

The target of another assay is T2, chromodomain of CBX4. Nature of the assay: AlphaScreen or HTRF.
In the case of {4‑iPr‑Bz}-FALK(diethyl)S-OMe (reading uncertain) [compound 32], the IC50 was 0.16 µM. This lies in the sub-micromolar range.

In turn, B1 registered an IC50 of 0.083 µM.

For the molecule {4‑CF3‑Bz}-FALK(diethyl)S-OMe (reading uncertain) [compound 34], the half-maximal inhibitory concentration (IC50) was 0.48 µM.

Take {3‑Me‑Bz}-FALK(diethyl)S-OMe (reading uncertain) [compound 29]: the half-maximal inhibitory concentration (IC50) was found to be 2.7 µM.

Bz-FALK(diethyl)S-OMe (reading uncertain) [compound 27]: half-maximal inhibition (IC50) required 3 µM.

With {4‑Et‑Bz}-FALK(diethyl)S-OMe (reading uncertain) [compound 31], half-maximal inhibition (IC50) was put at 0.19 µM.

Consider {4‑CO2Me‑Bz}-FALK(diethyl)S-OMe (reading uncertain) [compound 33], for which the 50% inhibitory concentration (IC50) is 1.2 µM.

For {t‑butylbenzyl}-FALK(diethyl)S-OMe (reading uncertain) [compound 36], the IC50 amounted to 9.7 µM.

Consider {2‑Me‑Bz}-FALK(diethyl)S-OMe (reading uncertain) [compound 28], for which half-maximal inhibition (IC50) was put at 58 µM.

Take {4‑Me‑Bz}-FALK(diethyl)S-OMe (reading uncertain) [compound 30]: the IC50 came to 0.77 µM.

The next assay has as its target T3, chromodomain of CDYL2. Nature of the assay: AlphaScreen or HTRF.
In the case of {4‑iPr‑Bz}-FALK(diethyl)S-OMe (reading uncertain) [compound 32], the IC50 stood at 0.1 µM.

As to {4‑tBu‑Bz}-FAL[Lys(Me3)]S-OMe [compound 39], the midpoint of inhibition, the IC50, lay at 0.11 µM.

Take B1: the IC50 amounted to 0.14 µM.

{4‑CF3‑Bz}-FALK(diethyl)S-OMe (reading uncertain) [compound 34] showed an IC50 of 0.13 µM. This IC50 and that of the molecule before are within 1.5-fold of each other.

Consider {3‑Me‑Bz}-FALK(diethyl)S-OMe (reading uncertain) [compound 29], for which it took 0.34 µM to reach half-maximal inhibition (IC50).

Molecule Bz-FALK(diethyl)S-OMe (reading uncertain) [compound 27] gave an IC50 of 0.34 µM.

Consider {4‑Et‑Bz}-FALK(diethyl)S-OMe (reading uncertain) [compound 31], for which the IC50 stood at 0.1 µM. Compared with the last molecule, the IC50 is about 3.4-fold lower.

The molecule {4‑CO2Me‑Bz}-FALK(diethyl)S-OMe (reading uncertain) [compound 33] showed an IC50 of 0.11 µM.

In turn, {t‑butylbenzyl}-FALK(diethyl)S-OMe (reading uncertain) [compound 36] came in with an IC50 of 0.2 µM.

Molecule {2‑Me‑Bz}-FALK(diethyl)S-OMe (reading uncertain) [compound 28] displayed a 50% inhibitory concentration (IC50) of 0.56 µM. This IC50 lies about 2.8-fold higher than the previous one.

Molecule {4‑Me‑Bz}-FALK(diethyl)S-OMe (reading uncertain) [compound 30] had a half-maximal inhibitory concentration (IC50) of 0.28 µM.

The target of the next assay is chromodomain of CBX5 (human). Nature of the assay: AlphaScreen or HTRF.
Chain of chromodomain of CBX5 (human) (Q9UN86 18-75): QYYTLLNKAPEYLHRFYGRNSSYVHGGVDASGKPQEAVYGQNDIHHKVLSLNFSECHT
In turn, Bz-GFAL[Lys(Me3)]S-OMe [compound 6] came in with an IC50 of more than 60 µM.

The molecule B2 returned an IC50 of more than 60 µM.

The molecule Bz-G[NMeF]AL[Lys(Me3)]S-OMe [compound 9] yielded a half-inhibitory concentration (IC50) of more than 60 µM.

For the molecule B3, the IC50 was more than 60 µM.

For Bz-GFALKS-OMe (not fully specified (residues 3, 5)) [compound 8], the IC50 was more than 60 µM.

Another assay deals with chromodomain of CBX5 (human). Nature of the assay: AlphaScreen or HTRF. The source holds these as a separate data set.
For Bz-GFALK(Cyclopentyl)S-OMe [compound 13], the half-maximal inhibitory concentration (IC50) was more than 60 µM.

Molecule Bz-GFALK(dicyclobutyl)S-OMe (reading uncertain) [compound 22] yielded an IC50 of more than 60 µM.

Regarding Bz-GFALK(diethyl)S-OMe (reading uncertain) [compound 18], the IC50 was more than 60 µM.

Bz-GFALK(tetramethylguanidino)S-OMe [compound 24] yielded an IC50 of more than 60 µM.

Bz-GFALK(azepanyl)S-OMe [compound 21]: the IC50 is more than 60 µM.

On to Bz-GFALK(norbornyl)S-OMe [compound 15], for which the half-maximal inhibitory concentration (IC50) is more than 60 µM.

On to Bz-GFALK(piperidinyl)S-OMe [compound 20], for which the IC50 is more than 60 µM.

Bz-GFALKS-OMe [compound 11]: the IC50 is more than 60 µM.

Take Bz-GFALK(pyrrolidinyl)S-OMe [compound 19]: the IC50 is more than 60 µM.

Regarding Bz-GFALK([norbornyl-Ac])S-OMe [compound 23], the IC50 is more than 60 µM.

On to Bz-GFALK(iPr)S-OMe [compound 12], for which the concentration for half-maximal inhibition (IC50) is more than 60 µM.

The molecule Bz-GFALK(adamantyl)S-OMe [compound 16] came in with an IC50 of more than 60 µM.

Bz-GFALK(dimethyl)S-OMe [compound 17] yielded an IC50 of more than 60 µM.

As for Bz-GFALK(cyclohexyl)S-OMe [compound 14], the IC50 is more than 60 µM.

For another assay, the target named is chromodomain of CBX5 (human). Nature of the assay: AlphaScreen or HTRF. This is another data set of the same source.
Regarding {4‑iPr‑Bz}-FALK(diethyl)S-OMe (reading uncertain) [compound 32], the midpoint of inhibition, the IC50, lay at 38 µM.

In turn, {4‑tBu‑Bz}-FAL[Lys(Me3)]S-OMe [compound 39] registered an IC50 of more than 60 µM.

As for B1, the IC50 is more than 60 µM.

As to {4‑CF3‑Bz}-FALK(diethyl)S-OMe (reading uncertain) [compound 34], it took 33 µM to reach half-maximal inhibition (IC50). This lies in the double-digit micromolar range.

{3‑Me‑Bz}-FALK(diethyl)S-OMe (reading uncertain) [compound 29] showed a concentration for half-maximal inhibition (IC50) of more than 60 µM.

The molecule Bz-FALK(diethyl)S-OMe (reading uncertain) [compound 27] gave a 50% inhibitory concentration (IC50) of 6.9 µM.

{4‑Et‑Bz}-FALK(diethyl)S-OMe (reading uncertain) [compound 31] had an IC50 of 14 µM.

As for {4‑CO2Me‑Bz}-FALK(diethyl)S-OMe (reading uncertain) [compound 33], half-maximal inhibition (IC50) was put at 26 µM. Against the preceding molecule, the IC50 is about 1.9-fold higher.

{t‑butylbenzyl}-FALK(diethyl)S-OMe (reading uncertain) [compound 36]: the 50% inhibitory concentration (IC50) is more than 60 µM.

As for {2‑Me‑Bz}-FALK(diethyl)S-OMe (reading uncertain) [compound 28], the concentration for half-maximal inhibition (IC50) was more than 60 µM.

Consider {4‑Me‑Bz}-FALK(diethyl)S-OMe (reading uncertain) [compound 30], for which inhibition was half-maximal at 21 µM (IC50). This counts as double-digit micromolar.

These data come from paper PMC5063714 (Journal of medicinal chemistry, 2016).
